Data published in patent US20100272719A1 (CHENGDU KANGHONG BIOTECHNOLOGIES, published 2010).

Assays:
human VEGF165 [1] = biological target: T1, human VEGF165 (human, UniProt P15692-4 27-191); assay: solution binding: human VEGF incubated 1 h at 37 C with dilutions of binder, free VEGF measured by ELISA kit
human VEGF165 [2] = biological target: T1, human VEGF165; assay: comparison of affinity for VEGF, reference Avastin
human VEGF165 [3] = biological target: T1, human VEGF165; assay: binding assay on purified fusion protein (quality testing)

T1 sequence (P15692 other isoform, or with tags, fused parts or gaps limits assumed): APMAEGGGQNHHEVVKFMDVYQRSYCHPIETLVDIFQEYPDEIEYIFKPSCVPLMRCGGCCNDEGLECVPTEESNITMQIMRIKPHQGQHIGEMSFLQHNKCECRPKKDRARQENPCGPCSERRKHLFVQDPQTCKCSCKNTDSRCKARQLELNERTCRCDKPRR

| Binder | IC50 (human VEGF165 [1]) | fold affinity against Avastin (human VEGF165 [2]) | IC50 (human VEGF165 [3]) |
| --- | --- | --- | --- |
| FP3′ (FLTd2-KDRd3-KDRd4-Fc chimeric fusion protein) (Fc fusion) GRPFVEMYSEIPEIIHMTEGRELVIPCRVTSPNITVTLKKFPLDTLIPDGKRIIWDSRKGFIISNATYKEIGLLTCEATVNGHLYKTNYLTHRQTNTIIDVVLSPSHGIELSVGEKLVLNCTARTELNVGIDFNWEYPSSKHQHKKLVNRDLKTQSGSEMKKFLSTLTIDGVTRSDQGLYTCAASSGLMTKKNSTFVRVHEKPFVAFGSGMESLVEATVGERVRIPAKYLGYPPPEIKWYKNGIPLESNHTIKAGHVLTIMEVSERDTGNYTVILTNPISKEKQSHVVSLVVYVPP | 10 pM | 50 fold | ≤ 50 pM |
| VEGF-TRAP (FP1′, FLTd2KDRd3-Fc) (Fc fusion, UniProt P17948 129-230, looked up, domain: 2nd Ig-like domain of FLT-1;domain: 3rd Ig-like domain of KDR; also called VEGF Trap (R1R2); not shown: human immunoglobulin Fc (IgFc)) SDTGRPFVEMYSEIPEIIHMTEGRELVIPCRVTSPNITVTLKKFPLDTLIPDGKRIIWDSRKGFIISNATYKEIGLLTCEATVNGHLYKTNYLTHRQTNTIIDVVLSPSHGIELSVGEKLVLNCTARTELNVGIDFNWEYPSSKHQHKKLVNRDLKTQSGSEMKKFLSTLTIDGVTRSDQGLYTCAASSGLMTKKNSTFVRVHEK | 30 pM | – | – |
